Measured values reported in PMC9616490.

Experiments:
Experiment in all cases: cryo-EM structure
Settings in all cases: remark: other sources report otherwise
[1] = biological target: T1, human Na-K-2Cl cotransporter-1 (hNKCC1), full-length wild type (human), P55011
T1 chain: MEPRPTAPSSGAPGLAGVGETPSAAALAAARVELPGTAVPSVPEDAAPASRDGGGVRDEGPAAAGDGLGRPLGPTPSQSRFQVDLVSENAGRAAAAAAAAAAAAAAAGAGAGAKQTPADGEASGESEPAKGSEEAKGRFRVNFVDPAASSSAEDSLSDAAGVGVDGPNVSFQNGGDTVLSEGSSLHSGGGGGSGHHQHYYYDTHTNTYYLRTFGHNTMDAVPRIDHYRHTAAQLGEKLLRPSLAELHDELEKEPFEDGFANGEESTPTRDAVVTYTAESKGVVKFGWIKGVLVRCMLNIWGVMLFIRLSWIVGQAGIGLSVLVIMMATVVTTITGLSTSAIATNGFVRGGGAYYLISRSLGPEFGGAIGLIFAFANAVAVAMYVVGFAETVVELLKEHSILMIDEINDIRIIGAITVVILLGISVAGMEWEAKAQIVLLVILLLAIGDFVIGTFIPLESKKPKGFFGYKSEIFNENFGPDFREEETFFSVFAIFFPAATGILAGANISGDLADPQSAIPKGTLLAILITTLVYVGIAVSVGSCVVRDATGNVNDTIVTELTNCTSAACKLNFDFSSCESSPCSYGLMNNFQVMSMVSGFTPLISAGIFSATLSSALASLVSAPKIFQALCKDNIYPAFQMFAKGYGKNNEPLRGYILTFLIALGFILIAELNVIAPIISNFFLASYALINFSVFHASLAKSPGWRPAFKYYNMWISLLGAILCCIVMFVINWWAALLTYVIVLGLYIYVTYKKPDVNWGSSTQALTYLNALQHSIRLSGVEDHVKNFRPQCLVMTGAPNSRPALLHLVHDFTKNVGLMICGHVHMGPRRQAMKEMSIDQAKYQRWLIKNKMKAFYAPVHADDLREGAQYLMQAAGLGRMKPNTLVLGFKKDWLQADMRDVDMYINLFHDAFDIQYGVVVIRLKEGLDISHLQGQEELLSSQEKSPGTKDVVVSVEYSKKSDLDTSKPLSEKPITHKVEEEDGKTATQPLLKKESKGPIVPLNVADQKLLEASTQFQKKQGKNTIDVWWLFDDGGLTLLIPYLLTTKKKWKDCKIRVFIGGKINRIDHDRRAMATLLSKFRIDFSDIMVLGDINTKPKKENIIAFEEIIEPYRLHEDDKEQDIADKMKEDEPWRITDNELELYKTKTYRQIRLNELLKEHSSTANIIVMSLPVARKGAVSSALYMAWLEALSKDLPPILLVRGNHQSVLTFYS

[2] = biological target: T1, human Na-K-2Cl cotransporter-1 …
[3] = biological target: T1, human Na-K-2Cl cotransporter-1 …

Measured: stoichiometry N

B1: human Na-K-2Cl cotransporter-1 (hNKCC1), full-length wild type, P55011 1-1212 (natural protein)
chain: T1 chain
2: [1] | [2] | [3]
